Measurements taken from publication PMC8446286.

B1: NAC019pro-G1 (dsDNA)
DNA 1: ATCACGACGATCTAACTGACACACGTGTCAGAATTCAAAAGTGTTTATAGATAAACACAA
DNA 2: TTGTGTTTATCTATAAACACTTTTGAATTCTGACACGTGTGTCAGTTAGATCGTCGTGAT
B2: NAC019pro-G34 (dsDNA)
DNA 1: TTGCGCCTAACTTCTACGATAGACACGTGGACACGTGTCGTCATGATGTAGTTTTGTCCG
DNA 2: CGGACAAAACTACATCATGACGACACGTGTCCACGTGTCTATCGTAGAAGTTAGGCGCAA
B3: IAA29pro-G (dsDNA)
DNA 1: GAGTAGTCACGCACGCACGACTCCGTTCACGTGACATTCACGTTGATATTTCCCCCTCTA
DNA 2: TAGAGGGGGAAATATCAACGTGAATGTCACGTGAACGGAGTCGTGCGTGCGTGACTACTC
B4: NAC019pro-G2 (dsDNA)
DNA 1: CATTTCAGAAAACCCGTCAACAAAAAACACGTGAAATAAAATATCTCTTCCTTTACCAGT
DNA 2: ACTGGTAAAGGAAGAGATATTTTATTTCACGTGTTTTTTGTTGACGGGTTTTCTGAAATG
B5: IAA29pro-p (dsDNA)
DNA 1: GATGTTGGATGTCTAAATTCGTTGAATCATGTGTCTCTTGACGAAATATGCATCTTCTTA
DNA 2: TAAGAAGATGCATATTTCGTCAAGAGACACATGATTCAACGAATTTAGACATCCAACATC

Molecular target: T1, GST-PIF4 (Arabidopsis thaliana, UniProt Q8W2F3 1-430)
T1 sequence: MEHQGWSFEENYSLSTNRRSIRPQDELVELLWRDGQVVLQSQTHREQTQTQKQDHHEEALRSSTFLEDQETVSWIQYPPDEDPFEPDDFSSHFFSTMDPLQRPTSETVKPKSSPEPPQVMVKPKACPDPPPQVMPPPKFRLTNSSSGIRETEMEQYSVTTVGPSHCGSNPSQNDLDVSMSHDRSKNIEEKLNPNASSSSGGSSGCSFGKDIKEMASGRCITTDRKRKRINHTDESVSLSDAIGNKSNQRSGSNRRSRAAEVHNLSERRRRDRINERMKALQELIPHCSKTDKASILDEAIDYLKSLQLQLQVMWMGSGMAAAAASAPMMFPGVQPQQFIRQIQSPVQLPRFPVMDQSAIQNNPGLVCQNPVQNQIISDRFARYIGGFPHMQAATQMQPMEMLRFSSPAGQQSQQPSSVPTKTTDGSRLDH
Assay: EMSA

Row | Binder | binding result
1 | B1 | binds
2 | B2 | binds
3 | B3 | binds
4 | B4 | no binding
5 | B5 | no binding
